Where two headings read alike, the source gives them in different places.

Assay [1] addresses Plasminogen (Homo sapiens) (UniProt P00747). Particulars: cited from earlier work.
Assay [2] shares this target. Particulars: cited from earlier work. This is another data set of the same source.
Assay [3] concerns the target Translation elongation factor Tuf of Acinetobacter baumannii type strain ATCC 19606, recombinant, N-terminally hexahistidine-tagged (Acinetobacter baumannii ATCC 19606) (UniProt B7H1K5). Briefly: ELISA; immobilised TufAb, plasminogen (10 ug/ml) with increasing concentrations of NaBr (up to 1 M). (In general: ELISA stands for enzyme-linked immunosorbent assay.)
Assay [4] has the same target. The assay can be described thus: ELISA; immobilised Tuf (5 ug/ml) incubated with increasing amounts of plasminogen; apparent dissociation constants by non-linear regression.
The target is the same in assay [5]. Briefly: ELISA; immobilised TufAb, plasminogen (10 ug/ml) with increasing concentrations of the lysine analog tranexamic acid (up to 50 mM).
Assay [6] addresses Elongation factor Tuf of Legionella pneumophila, recombinant, hexahistidine-tagged (Legionella pneumophila). The assay can be described thus: ELISA.

For DnaK (from UniProt B8DT62), the Kd in assay [1] is 11 nM.

As for Enolase (from UniProt B8DTI9), the Kd in assay [2] is 42 nM.

In the case of Human glu-plasminogen (natural protein), the percent of binding left with 1 M NaBr, against reactions without NaBr in assay [3] was 55%. Also, the values for the Kd in assay [4] and in assay [6] were 57 nM and 69 nM, respectively. Further, in assay [5], the percent decrease of binding with 50 mM tranexamic acid, against reactions without it worked out at 50%.
